Measurements from IntAct's records for PubMed 31477895.

B1: Ubiquitin carboxyl-terminal hydrolase 15 (Homo sapiens), Q9Y4E8 (parent)
chain: MAEGGAADLDTQRSDIATLLKTSLRKGDTWYLVDSRWFKQWKKYVGFDSWDKYQMGDQNVYPGPIDNSGLLKDGDAQSLKEHLIDELDYILLPTEGWNKLVSWYTLMEGQEPIARKVVEQGMFVKHCKVEVYLTELKLCENGNMNNVVTRRFSKADTIDTIEKEIRKIFSIPDEKETRLWNKYMSNTFEPLNKPDSTIQDAGLYQGQVLVIEQKNEDGTWPRGPSTPKSPGASNFSTLPKISPSSLSNNYNNMNNRNVKNSNYCLPSYTAYKNYDYSEPGRNNEQPGLCGLSNLGNTCFMNSAIQCLSNTPPLTEYFLNDKYQEELNFDNPLGMRGEIAKSYAELIKQMWSGKFSYVTPRAFKTQVGRFAPQFSGYQQQDCQELLAFLLDGLHEDLNRIRKKPYIQLKDADGRPDKVVAEEAWENHLKRNDSIIVDIFHGLFKSTLVCPECAKISVTFDPFCYLTLPLPMKKERTLEVYLVRMDPLTKPMQYKVVVPKIGNILDLCTALSALSGIPADKMIVTDIYNHRFHRIFAMDENLSSIMERDDIYVFEININRTEDTEHVIIPVCLREKFRHSSYTHHTGSSLFGQPFLMAVPRNNTEDKLYNLLLLRMCRYVKISTETEETEGSLHCCKDQNINGNGPNGIHEEGSPSEMETDEPDDESSQDQELPSENENSQSEDSVGGDNDSENGLCTEDTCKGQLTGHKKRLFTFQFNNLGNTDINYIKDDTRHIRFDDRQLRLDERSFLALDWDPDLKKRYFDENAAEDFEKHESVEYKPPKKPFVKLKDCIELFTTKEKLGAEDPWYCPNCKEHQQATKKLDLWSLPPVLVVHLKRFSYSRYMRDKLDTLVDFPINDLDMSEFLINPNAGPCRYNLIAVSNHYGGMGGGHYTAFAKNKDDGKWYYFDDSSVSTASEDQIVSKAAYVLFYQRQDTFSGTGFFPLDRETKGASAATGIPLESDEDSNDNDNDIENENCMHTN

Variants of: B1
Details: with syvn1_human SYVN1, Q86TM6
syvn1_human SYVN1, Q86TM6, sequence (Q86TM6 whole entry): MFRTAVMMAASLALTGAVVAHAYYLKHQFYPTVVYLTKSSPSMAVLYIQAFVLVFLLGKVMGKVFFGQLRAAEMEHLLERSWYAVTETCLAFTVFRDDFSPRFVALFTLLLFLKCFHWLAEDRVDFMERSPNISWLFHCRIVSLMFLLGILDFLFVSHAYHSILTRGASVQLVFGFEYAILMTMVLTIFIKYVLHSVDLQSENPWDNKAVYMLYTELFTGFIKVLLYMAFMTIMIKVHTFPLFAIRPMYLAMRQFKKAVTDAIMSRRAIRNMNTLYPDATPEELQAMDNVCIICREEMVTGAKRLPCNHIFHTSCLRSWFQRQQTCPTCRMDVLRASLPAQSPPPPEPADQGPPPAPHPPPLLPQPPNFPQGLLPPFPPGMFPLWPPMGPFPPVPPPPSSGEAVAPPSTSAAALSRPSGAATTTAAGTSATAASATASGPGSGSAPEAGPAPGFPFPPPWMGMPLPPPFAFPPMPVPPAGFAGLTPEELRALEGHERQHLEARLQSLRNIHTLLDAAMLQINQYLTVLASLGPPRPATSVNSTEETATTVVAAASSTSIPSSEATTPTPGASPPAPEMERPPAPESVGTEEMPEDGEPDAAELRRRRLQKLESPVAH

Row | effect of a mutation on the interaction | Variant
1 | with no effect | K228R
2 | with no effect | K154R
3 | with no effect | K21R
